Source: US5792629A, “Isolated DNA encoding novel protease inhibitory polypeptide” (Mochida Pharmaceutical Co., Ltd., priority 1990, dated 1998)
Values belong to the molecule of their own block, whether it stands above or below them.

How the values were obtained:
[1] = biological target: T1, Human neutrophil elastase (Homo sapiens, UniProt P08246); test: Human elastase-inhibiting activity, substrate STANA; assay type: biochemical; settings: purified sample, various concentrations; remaining activity vs buffer control (FIG. 15A-C)
T1 construct: purchased CALBIOCHEM Type V
T1 sequence (P08246 30-267): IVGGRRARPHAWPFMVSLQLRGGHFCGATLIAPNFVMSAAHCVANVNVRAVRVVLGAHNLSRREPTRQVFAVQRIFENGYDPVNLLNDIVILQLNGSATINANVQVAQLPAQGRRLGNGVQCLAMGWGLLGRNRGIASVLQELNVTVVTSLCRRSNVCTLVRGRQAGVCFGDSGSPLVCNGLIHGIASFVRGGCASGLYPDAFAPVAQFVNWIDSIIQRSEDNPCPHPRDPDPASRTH
Description: The purified sample obtained in Example 1-(5) was dissolved in 100 μl of distilled water. Concentration of this solution was determined based on its bovine trypsin-inhibiting activity using the UTI as a standard. The solution was then diluted to various concentration levels with 0.1% BSA/27 mM CaCl2 /133 mM Tris-HCl buffer (pH 7.5) for use in the activity measurement. The aforementioned UTI was also diluted in the same manner. Human elastase-inhibiting activities in the test samples and the positive control were measured in accordance with the method of Ogawa et al. (Ogawa, M. et al., Res. Commun. Chem. Pathol. Pharmacol., vol.55, pp.271-274, 1987) using a synthetic compound STANA (Peptide Institute Inc.) as a substrate.
Human neutrophil elastase (Type V, CALBIOCHEM) was dissolved in 27 mM CaCl2 /[…] Tris-HCl buffer (pH 7.5) to a concentration of 100 μg/ml and the solution was further diluted with 0.1% BSA/27 mM CaCl2 /133 mM Tris-HCl buffer (pH 7.5) to prepare 4 μg/ml of elastase solution. 100 mM solution of STANA was prepared by dissolving it in N-methyl-2-pyrrolidone and the solution was further diluted with 0.1% BSA/27 mM CaCl2 /133 mM Tris-HCl buffer (pH 7.5) to prepare 20 mM of STANA solution.
Next, 50 μl of the test sample or positive control was mixed with 50 μl of the elastase solution and 50 μl of 0.1% BSA/27 mM CaCl2 /133 mM Tris-HCl buffer (pH 7.5). After incubation at 37° C. for 10 minutes, 50 μl of the STANA solution was added to the mixture to start the reaction. The reaction was carried out at 37° C. for 20 minutes and then stopped by adding 50 μl of 50% acetic acid solution to the reaction mixture. Thereafter, absorbance at 405 nm was measured using a spectrophotometer.
In this instance, in order to eliminate absorbance of various solutions in the reaction mixture, a blank solution was prepared by mixing 50 μl of the elastase solution with 50 μl of 50% acetic acid and then with 50 μl of each test sample or the positive control, 50 μl of 0.1% BSA/27 mM CaCl2 /133 mM Tris-HCl buffer (pH 7.5) and with 50 μl of the STANA solution.
In this figure, human elastase remaining activity was expressed by percentage based on the absorbance of a control reaction mixture in which 50 μl of 0.1% BSA/27 mM CaCl2 /133 mM Tris-HCl buffer (pH 7.5) was used instead of the test sample or the positive control.

Human plasma plasmin = biological target: T2, Human plasma plasmin (Homo sapiens, UniProt P00747); test: Plasmin-inhibiting activity, substrate S-2251; assay type: biochemical; settings: purified sample, various concentrations; remaining activity vs buffer control (FIG. 16A-C)
T2 construct: Human plasma plasmin (Sigma Chemical Co.) was dissolved in physiological saline; purchased Sigma Chemical Co; host or cells: human plasma
Description: The purified sample obtained in Example 1-(5) was dissolved in 100 μl of distilled water. Concentration of this solution was determined based on its bovine trypsin-inhibiting activity using the aforementioned UTI as a standard. The solution was then diluted to various concentration levels with 0.11M NaCl/50 mM Tris-HCl buffer (pH 7.4) for use in the activity measurement. The UTI was also diluted in the same manner. Using a synthetic compound S-2251 (Daiichi Pure Chemicals Co., Ltd.) as a substrate, human plasmin-inhibiting activities of the diluted test samples and the positive control were measured in accordance with the method of Friberger et al. (Friberger,P. et al., Haemostasis, vol.7, pp.138-145, 1978).
Human plasma plasmin (Sigma Chemical Co.) was dissolved in physiological saline to a concentration of 1 U/ml and the solution was further diluted with 50% glycerol/2 mM HCl solution to prepare 0.1 U/ml of plasmin solution. 3.5 mM solution of S-2251 was prepared by dissolving it in distilled water.
Next, 50 μl of the test sample or positive control was mixed with 50 μl of the plasmin solution and 100 μl of 0.11M NaCl/50 mM Tris-HCl buffer (pH 7.4). After incubation at 37° C. for 10 minutes, 50 μl of the S-2251 solution was added to the mixture to start the reaction. The reaction was carried out at 37° C. for 2 minutes and then stopped by adding 25 μl of 50% acetic acid solution to the reaction mixture. Thereafter, absorbance at 405 nm was measured using a spectrophotometer.
In this instance, in order to eliminate absorbance of various solutions in the reaction mixture, a blank solution was prepared by mixing 50 μl of the plasmin solution with 25 μl of 50% acetic acid and then with 50 μl of each test sample or the positive control, 100 μl of 0.11M NaCl/50 mM Tris-HCl buffer (pH 7.4) and with 50 μl of the S-2251 solution.
In this figure, human plasmin remaining activity was expressed by percentage based on the absorbance of a control reaction mixture in which 50 μl of 0.11M NaCl/50 mM Tris-HCl buffer (pH 7.4) was used instead of the test sample or the positive control.

T2 sequence (P00747 97-810): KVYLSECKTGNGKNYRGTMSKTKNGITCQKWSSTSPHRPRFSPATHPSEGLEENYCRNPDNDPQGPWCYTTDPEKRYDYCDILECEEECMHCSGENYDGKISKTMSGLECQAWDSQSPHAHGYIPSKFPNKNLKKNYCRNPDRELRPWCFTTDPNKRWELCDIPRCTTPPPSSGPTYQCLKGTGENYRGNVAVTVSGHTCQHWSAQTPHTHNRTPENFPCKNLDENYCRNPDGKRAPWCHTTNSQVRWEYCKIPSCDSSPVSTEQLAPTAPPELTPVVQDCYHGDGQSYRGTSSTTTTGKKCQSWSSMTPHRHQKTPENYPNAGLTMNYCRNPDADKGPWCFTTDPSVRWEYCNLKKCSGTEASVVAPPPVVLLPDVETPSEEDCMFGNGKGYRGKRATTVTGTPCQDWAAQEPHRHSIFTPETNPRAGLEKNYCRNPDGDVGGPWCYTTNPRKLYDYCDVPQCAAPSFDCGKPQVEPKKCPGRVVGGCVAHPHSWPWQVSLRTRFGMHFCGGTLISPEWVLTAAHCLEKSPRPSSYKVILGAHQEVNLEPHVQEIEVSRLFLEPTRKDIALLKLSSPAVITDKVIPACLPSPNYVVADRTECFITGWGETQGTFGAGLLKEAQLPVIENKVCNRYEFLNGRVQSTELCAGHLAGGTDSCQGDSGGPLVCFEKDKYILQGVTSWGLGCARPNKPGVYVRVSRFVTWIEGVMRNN

Molecule: CC51: polypeptide defined by the amino acid sequence of formula 1, purified from culture supernatant of E. coli JE5505 (pM560) (CNLPIVRGPCRAFIQLWAFDAVKGKCVLFPYGGCQGNGNKFYSEKECREYC)
human elastase-inhibiting activity [1]: activity was found | human plasmin-inhibiting activity (Human plasma plasmin): activity was found

B1: TL66: polypeptide defined by formula 8; known enzyme-digested fragment of urinary trypsin inhibitor, made in E. coli JE5505 (pM551) (protein)
chain: TVAACNLPIVRGPCRAFIQLWAFDAVKGKCVLFPYGGCQGNGNKFYSEKECREYCGVPGDGDEELL
human elastase-inhibiting activity [1]: activity was found | human plasmin-inhibiting activity (Human plasma plasmin): activity was found

Second part, the molecule after the results:

human elastase-inhibiting activity [1]: activity was found | human plasmin-inhibiting activity (Human plasma plasmin): activity was found
B2: TN70: polypeptide defined by the amino acid sequence of formula 3, purified from culture supernatant of E. coli JE5505 (pM552) (protein)
chain: TVAACNLPIVRGPCRAFIQLWAFDAVKGKCVLFPYGGCQGNGNKFYSEKECREYCGVPGDGDEELLRFSN

human elastase-inhibiting activity [1]: activity was found | human plasmin-inhibiting activity (Human plasma plasmin): activity was found
B3: UTI: urinary trypsin inhibitor purified from human urine (Mochida Pharmaceutical), used as positive control (protein)
chain: AVLPQEEEGSGGGQLVTEVTKKEDSCQLGYSAGPCMGMTSRYFYNGTSMACETFQYGGCMGNGNNFVTEKECLQTCRTVAACNLPIVRGPCRAFIQLWAFDAVKGKCVLFPYGGCQGNGNKFYSEKECREYCGVPGDGDEELLRFSN
modifications: glycoprotein (sugar moieties, as the filing says in general of UTI)
